Ends that are not written are not given here.
B1: NTB-CFP: NTB peptide fused to CFP (protein)
chain: MVRFGDELGGRYGGPGGGERARGGGAGGAGGPGPGGLQPGQRVLYKQSIAQRARTMALYNPIPVKQNCFTVNRSLFVFSEDNVVRKYAKRITEWP
modifications: left off: large carriers
B2: NTB [1-55]: residues 1-55 of NTB (protein)
chain: MKLLSSIEQACDICRLKKLKCSKEKPKCAKCLKNNWECRYSPKTKRSPLTRAHLTEVESRLERLEQLFLLIFPREDLDMILKMDSLQDIKALLTGLFVQDNVNKDAVTDRLASVETDMPLTLRQHRISATSSSEESSNKGQRQLTVSMVRFGDELGGRYGGPGGGERARGGGAGGAGGPGPGGLQPGQRVLYKQSIAQRART
B3: NTB (Δ45-55): NTB peptide lacking residues 45-55 (protein)
chain: MVRFGDELGGRYGGPGGGERARGGGAGGAGGPGPGGLQPGQRVLMALYNPIPVKQNCFTVNRSLFVFSEDNVVRKYAKRITEWP
modifications: left off: small tags and cut ends

Key:
I-II loop of α1B (I-IIB) = target: T1, I-II loop of α1B (I-IIB) (Homo sapiens, UniProt Q00975); assay: Yeast two-hybrid assay, NT peptides versus I-IIB; format: binding; details: NT segment in pGBKT7, I-IIB in pGADT7
T1 construct: I-IIB(357-482)-pGADT7 & lam-pGBKT7; expressed in transfected cells; host or cells: AH109 yeast
T1 sequence (Q00975 357-482): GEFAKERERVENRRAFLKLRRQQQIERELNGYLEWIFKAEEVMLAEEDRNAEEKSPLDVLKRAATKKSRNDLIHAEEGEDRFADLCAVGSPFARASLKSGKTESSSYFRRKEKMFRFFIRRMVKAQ
Excerpt: (§1) For yeast two-hybrid assays, a PCR fragment encoding one partner was fused, in-frame, with the GAL4 DNA binding domain (BD) in pGBKT7 (Clontech, Palo Alto, Calif.). The other element was fused, in-frame, with the GAL4 activation domain (AD) in pGADT7. For specific residues, see Supplemental Data (section 2). For electrophysiology, NT peptides lacking fluorophore tag were PCR amplified and cloned in pcDNA3. NTB peptide residues, 1-95; NTC residues, […]. Throughout, all segments subject to PCR or QuikChange were verified in their entirety by sequencing.
(§2) The Matchmaker GAL4 Two-Hybrid System 3 was used (Clontech, Palo Alto, Calif.). AH109 yeast were transformed with pGBKT7/pGADT7-based constructs (Yeastmaker Yeast Transformation System 2 kit, Clontech). After 5-8 days, growth on -leucine/-trytophan plates confirmed transformation of both plasmids. If partners interact, GAL4 BD/AD would complex, activating reporter genes (HIS3, ADE2, lacZ, and MEL1), for which assays are detailed in the Supplemental Data (section 2.1).
(§3) As a ‘medium’ stringency assay, expression of the lacZ gene was tested for encoding β-galactosidase, performing a filter lift with application of blue chromogenic substrate (Clontech-Laboratories, 1999). After the filter lift, original plates were re-grown for 2-3 days at 30° C. Filter paper was then used to replicate colonies onto a high stringency plate (-adenine/-histidine/-leucine/-trytophan). These plates were then incubated at 30° C. for 5-8 days. Survival on high stringency plates indicates production of both adenine and histidine, from transcription of the ADE2 and HIS3 genes, respectively. The percentage of colonies that turned blue in the filter lift assay, along with the percentage of colonies that survived on high stringency plates, was recorded for each pairing. Experiments were repeated at least three times. False positives were controlled for by testing each segment in pGBKT7 against empty pGADT7, and each segment in pGADT7 against lamin C in pGBKT7 (lamin C interacts with few proteins). Average sum of these backgrounds was subtracted from B to produce the net interaction parameter ΔB (FIG. 2).

[1] = target: T2, N-type (α1B) Ca2+ channels (Homo sapiens, UniProt Q00975); assay: Whole-cell G/Q analysis and prepulse facilitation of recombinant N-type channels coexpressed with peptide in HEK293 cells; format: cell-based; details: for Effect on G/Q slope (Gmax-Qmax relation), with Gβγ: peptide coexpressed with channels and Gβγ, Gmax after 100 mV prepulse
T2 construct: transferred by EcoRI and Bgl II sites into the full-length α1B construct; expressed in transfected cells; host or cells: HEK293
T2 sequence (Q00975 whole entry, other chains not shown): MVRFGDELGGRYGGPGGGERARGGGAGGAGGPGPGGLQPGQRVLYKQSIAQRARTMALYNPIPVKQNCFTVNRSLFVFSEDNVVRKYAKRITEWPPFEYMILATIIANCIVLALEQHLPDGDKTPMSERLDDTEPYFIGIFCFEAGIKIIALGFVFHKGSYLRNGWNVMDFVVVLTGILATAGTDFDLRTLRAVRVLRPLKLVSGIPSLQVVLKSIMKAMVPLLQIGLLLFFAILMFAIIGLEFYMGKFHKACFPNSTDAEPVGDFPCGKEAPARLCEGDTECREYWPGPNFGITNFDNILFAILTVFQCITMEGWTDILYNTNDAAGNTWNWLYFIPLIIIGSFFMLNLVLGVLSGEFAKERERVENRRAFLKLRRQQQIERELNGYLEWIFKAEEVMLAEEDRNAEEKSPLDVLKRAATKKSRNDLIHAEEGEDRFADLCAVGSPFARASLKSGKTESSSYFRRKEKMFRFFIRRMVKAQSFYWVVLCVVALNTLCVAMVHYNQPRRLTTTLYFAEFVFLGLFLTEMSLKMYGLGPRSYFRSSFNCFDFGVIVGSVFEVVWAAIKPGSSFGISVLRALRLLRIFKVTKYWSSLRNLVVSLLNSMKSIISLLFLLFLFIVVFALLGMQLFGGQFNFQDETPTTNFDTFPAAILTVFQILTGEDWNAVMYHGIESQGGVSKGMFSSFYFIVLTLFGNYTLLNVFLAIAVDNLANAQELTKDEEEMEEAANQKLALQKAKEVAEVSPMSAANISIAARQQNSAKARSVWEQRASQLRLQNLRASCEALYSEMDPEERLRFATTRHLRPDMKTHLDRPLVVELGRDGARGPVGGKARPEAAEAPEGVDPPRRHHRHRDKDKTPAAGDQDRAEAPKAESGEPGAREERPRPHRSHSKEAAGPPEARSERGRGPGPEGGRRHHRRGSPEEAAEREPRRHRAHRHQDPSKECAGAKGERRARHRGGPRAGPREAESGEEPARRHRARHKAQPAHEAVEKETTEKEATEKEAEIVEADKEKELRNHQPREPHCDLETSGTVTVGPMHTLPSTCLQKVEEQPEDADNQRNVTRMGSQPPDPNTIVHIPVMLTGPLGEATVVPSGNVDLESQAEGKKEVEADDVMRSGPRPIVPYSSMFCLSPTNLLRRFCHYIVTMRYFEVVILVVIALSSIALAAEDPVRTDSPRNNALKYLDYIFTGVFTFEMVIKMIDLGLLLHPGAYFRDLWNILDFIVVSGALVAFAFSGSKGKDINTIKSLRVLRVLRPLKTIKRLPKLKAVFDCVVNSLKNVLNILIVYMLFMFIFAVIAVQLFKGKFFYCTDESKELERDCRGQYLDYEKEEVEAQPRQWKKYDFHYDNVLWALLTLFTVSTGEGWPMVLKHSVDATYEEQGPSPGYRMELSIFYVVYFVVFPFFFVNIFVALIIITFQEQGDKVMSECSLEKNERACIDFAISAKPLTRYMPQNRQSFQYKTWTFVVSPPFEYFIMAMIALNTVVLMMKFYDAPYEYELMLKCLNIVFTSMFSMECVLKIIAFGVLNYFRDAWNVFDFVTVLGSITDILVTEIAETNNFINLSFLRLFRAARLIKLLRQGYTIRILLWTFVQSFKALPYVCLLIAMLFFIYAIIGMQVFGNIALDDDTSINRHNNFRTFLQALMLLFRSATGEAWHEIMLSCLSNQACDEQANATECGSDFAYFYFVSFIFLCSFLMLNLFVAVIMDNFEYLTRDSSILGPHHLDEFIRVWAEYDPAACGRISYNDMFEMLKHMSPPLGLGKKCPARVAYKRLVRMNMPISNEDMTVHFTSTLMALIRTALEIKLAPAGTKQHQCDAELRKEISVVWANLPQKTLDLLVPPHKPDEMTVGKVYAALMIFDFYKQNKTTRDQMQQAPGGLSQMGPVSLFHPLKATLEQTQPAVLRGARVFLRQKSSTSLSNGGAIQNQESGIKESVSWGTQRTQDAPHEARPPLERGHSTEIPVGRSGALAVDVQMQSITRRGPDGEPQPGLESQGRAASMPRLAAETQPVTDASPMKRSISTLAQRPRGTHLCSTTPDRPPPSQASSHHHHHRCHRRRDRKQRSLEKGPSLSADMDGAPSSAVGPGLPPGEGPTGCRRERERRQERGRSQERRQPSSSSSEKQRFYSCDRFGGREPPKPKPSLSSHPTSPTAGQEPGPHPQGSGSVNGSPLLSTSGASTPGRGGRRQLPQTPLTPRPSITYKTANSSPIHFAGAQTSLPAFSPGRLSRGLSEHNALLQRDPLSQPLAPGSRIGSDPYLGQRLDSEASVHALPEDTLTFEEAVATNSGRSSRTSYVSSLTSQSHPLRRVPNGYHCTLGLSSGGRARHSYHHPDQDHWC
T2 sequence (P54290 25-944 partner limits assumed, other chains not shown): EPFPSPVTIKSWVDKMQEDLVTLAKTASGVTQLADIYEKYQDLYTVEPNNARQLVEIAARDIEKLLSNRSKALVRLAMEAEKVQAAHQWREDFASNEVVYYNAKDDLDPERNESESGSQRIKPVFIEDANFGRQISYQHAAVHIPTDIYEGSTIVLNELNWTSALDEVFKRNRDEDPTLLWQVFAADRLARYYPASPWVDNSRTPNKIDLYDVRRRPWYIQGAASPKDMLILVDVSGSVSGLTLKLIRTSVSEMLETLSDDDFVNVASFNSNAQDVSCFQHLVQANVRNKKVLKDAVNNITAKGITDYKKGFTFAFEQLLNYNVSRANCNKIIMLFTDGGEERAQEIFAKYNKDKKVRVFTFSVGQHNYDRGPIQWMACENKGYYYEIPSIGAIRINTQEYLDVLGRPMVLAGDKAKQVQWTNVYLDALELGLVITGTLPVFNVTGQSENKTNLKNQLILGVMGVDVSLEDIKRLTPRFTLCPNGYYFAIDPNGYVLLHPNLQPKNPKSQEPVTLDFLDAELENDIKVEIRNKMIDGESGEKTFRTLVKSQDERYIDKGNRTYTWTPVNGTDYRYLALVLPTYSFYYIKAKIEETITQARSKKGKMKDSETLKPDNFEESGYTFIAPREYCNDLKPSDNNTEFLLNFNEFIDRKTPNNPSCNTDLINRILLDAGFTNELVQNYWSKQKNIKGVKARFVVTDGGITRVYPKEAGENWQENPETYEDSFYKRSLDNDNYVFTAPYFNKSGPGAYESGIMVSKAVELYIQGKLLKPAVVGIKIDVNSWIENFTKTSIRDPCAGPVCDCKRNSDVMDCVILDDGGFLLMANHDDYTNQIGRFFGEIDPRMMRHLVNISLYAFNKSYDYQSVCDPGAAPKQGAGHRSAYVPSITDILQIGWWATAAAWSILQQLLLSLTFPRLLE
T2 sequence (P54290 945-1091 partner limits assumed, other chains not shown): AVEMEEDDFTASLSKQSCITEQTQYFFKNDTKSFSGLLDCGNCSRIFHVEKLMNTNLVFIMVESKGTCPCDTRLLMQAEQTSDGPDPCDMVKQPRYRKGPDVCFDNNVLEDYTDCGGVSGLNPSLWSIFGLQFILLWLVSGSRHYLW
Excerpt: FIG. 3A illustrates an approach for N-type channels without Gβγ coexpression. Exemplar currents activated quickly and were barely facilitated by strong prepulse depolarization (FIG. 3A, left). The slight residual prepulse facilitation reflects basal endogenous Gβγ activation. To estimate open probability, two intermediary parameters were specified. First, to gauge the number of channels in a cell (Nchannel), the channel gating current at the reversal potential for ionic current were isolated (FIG. 3A, middle left) (Jones et al., 1999). The area under this current yields the maximal gating charge Qmax, where Qmax=Nchannel×qmax, and qmax is the maximal gating charge per channel. Second, Gmax for a given cell, the maximal ionic current conductance determined as the slope of the peak current-voltage relation at depolarized potentials were determined (FIG. 3A, middle right, line). Here and throughout, current-voltage relations were determined after a 100 mV prepulse, which transiently relieves all G protein inhibition (Colecraft et al., 2000), thus eliminating these inhibitory effects in the estimate of Gmax. Accordingly, Gmax=Nchannel×Po,max×g, where Po,max is the maximal channel open probability at saturating de-polarization, and g is the conductance of a single open channel. In combination, then, a plot of Gmax versus Qmax for multiple cells ([…]) would describe a linear relation with slope equal to Po,max×g/qmax. Because g and qmax are unchanged by G protein modulation (Colecraft et al., 2001; Jones et al., 1997; Patil et al., 1996), this slope (G/Q=0.44±0.03 nS/fC) is proportional to Po,max . . . FIG. 3B documents the supporting results for N-type channels coexpressed with Gβγ. Gmax determined after prepulse de-polarization, when plotted against Qmax, specifies an identical slope to that without Gβγ (FIG. 3B, right, G/Q=0.43±0.04 nS/fC). […] Free NTB peptide with α1B channels. Initially, an NTB-CFP peptide was employed to visually confirm expression was coexpressed. […] By contrast, coexpressing channels with NTB-CFP and Gβγ produced remarkable effects (FIG. 3D). […] More telling were small ionic current amplitudes despite gating current magnitudes on par with controls (FIG. 3D, middle panels). Consequently, there was a significant ^w6-fold depression of the Gmax-Qmax plot (FIG. 3D, right). If NTB-CFP were simply chelating Gβγ (FIG. 2C), the G/Q slope would be unchanged from control. Instead, the suppression of G/Q indicates constitutive inhibition of channel opening.
Cells were transiently transfected and cultured in 10 cm plates (Brody et al., 1997). For 2+Ca^2+ channels, 8 μg was used of each of cDNAs of the desired a1, rat brain β2a (Perez-Reyes et al., 1992), and rat brain a^28 (Tomlinson et al., 1993) subunits; along with 2 μg T-antigen cDNA. N-type α1B, human origin (NM000718); L-type α1C, rabbit (Wei et al., 1991) (X15539). Gβγ coexpressed with 4 μg each of Gβ1 (Sugimoto et al., 1985) and Gγ2 (Gautam et al., 1990). For coexpression of N-terminal peptides, channel subunit cDNA reduced to 6 μg, while adding 14 μg peptide cDNA. For receptor experiments, 0.5 μg cDNA for m2R (below) applied with other cDNAs.
Whole-cell current records were made with Axopatch 200B (Axon Instruments, Calif.), 1-3 days posttransfection. Pipets, 1.5-3 MΩ before 60-75% series resistance compensation. Internal solution: 135 mM CsMeSO4, 5 mM CsCl, 10 mM EGTA, 10 mM HEPES, 1 mM MgCl2, and 4 mM MgATP. External solution: 150 mM TEAMeSO4, 10 mM HEPES, 2 mM CaCl2, and 1 mM MgCl2. During constitutive inhibition (or as noted for some chimeras), 20 mM BaCl2 was substituted for 2 mM CaCl2, and the resulting solution was diluted 1.08×. To compare across external solutions, a conversion factor of 3.18 was used. Currents and conductances with 20 mM Ba^2+ were thus scaled×1/3.18 to facilitate uniform comparison of values, as if all data had been collected with 2 mM Ca^2+. When applied, conversion is denoted by asterisk (*). […]

I-IIB-YFP = target: T3, I-IIB-YFP (Homo sapiens, UniProt Q00975); assay: Live-cell FRET two-hybrid assay versus I-IIB-YFP in HEK293 cells; format: binding; details: for Kd,EFF / affinity for I-IIB (FRET), in words: relative dissociation constant, HEK293 cells; for FRmax: 1:1 binding-model fit, CFP-tagged peptide versus I-IIB-YFP
T3 construct: I-IIB residues, 357-482; expressed in transfected cells; host or cells: HEK293
T3 sequence (Q00975 357-482): as the sequence (Q00975 357-482) above
Excerpt: To confirm preferential interaction of NTB with I-IIB a live-cell FRET two-hybrid assay was used (Erickson et al., 2003), in which NTB, NTC, I-IIB, and I-IIC were fused to either CFP or YFP, and the resulting fusion constructs expressed pair-wise in mammalian HEK293 cells. Given a Forster distance of ˜50 Å for the CFP/YFP pair (Patterson et al., 2000), the presence of FRET in individual cells would give a strong indication of interpeptide binding in the mammalian intracellular milieu. This indication is generally characterized by a low false-positive rate (Erickson et al., 2003), so that FRET assays provide a useful complement to yeast two-hybrid assays (Allen et al., 1995). […] SCFP (the signal derived from an image obtained with the CFP filter cube) is selective for CFP fluorescence and thereby gives an optical measure of NTB-CFP expression. Analogously, the SYFP signal, derived from preferential excitation and detection of YFP, estimates I-IIB-YFP levels. Finally, the SFRET signal reflects I-IIB-YFP fluorescence stimulated by FRET transfer from NTB-CFP, as well as secondary cross-talk signals. These three signals can be incorporated within a three-cube FRET algorithm to determine the strength of FRET interaction (“FRET ratio,” FR), independently of cross-talk (Erickson et al., 2001). FR adopts a value of unity in the absence of FRET and grows linearly with increasing FRET efficiency (Erickson et al., 2003). FR values for many individual cells are plotted as circles in FIG. 2Eb, with numerous determinations clearly greater than unity. Alternatively, FR values specified by a YFP-photobleaching methodology were also elevated above unity (triangles) (Bastiaens and Jovin, 1996). […] Consistent with yeast two-hybrid assays, then, FRET assays confirmed a selective propensity for NTB and I-IIB segments to associate.
Human m2 muscarinic acetylcholine receptor (AF498916) was engineered to reduce desensitization (Pals-Rylaarsdam and Hosey, 1997). QuikChange (Stratagene, La Jolla, Calif.) introduced cluster mutations, yielding m2R: residues 286-290 (STSVS/AAAVA), residues 307-311 (TVSTS/AVAAA). For FRET assays, base templates were ECFP/EYFP-tagged calmodulin constructs in pcDNA3 (Invitrogen, Carlsbad, Calif.), as described (Erickson et al., 2001). PCR-amplified channel segments or G proteins were substituted for calmodulin via upstream EcoRI and downstream NheI sites, creating in-frame fusions with fluorophore (ECFP/EYFP C-terminal to test molecules). NTC residues, 1-53; I-IIB residues, 357-482; and I-IIC residues, 436-554.
Experiments were performed mostly as previously described (Erickson et al., 2001; Erickson et al., 2003). Briefly, the FRET Ratio (FR) is the fractional increase in YFP emission due to FRET. […] For donor-dequenching analysis, EEFF is calculated as EEFF=^1−CFPpre/CFPpost, where CFPpre and CFPpost are the CFP emissions before/after 3 min YFP photobleaching. FR is determined by FR=(EEFF/[EYFP/ECFP])+1, where EYFP/ECFP is ratio of YFP and CFP molar extinction coefficients through 440 nm excitation bandpass of FRET cube (0.0574). For binding model analysis, Kd,EFF is the effective dissociation constant, related to actual Kd via filter/microscope optical characteristics. […]
Experiments were performed as described previously for the most part (Erickson et al., 2001; Erickson et al., 2003). Specifically, for quantitative analysis, all fluorescence from single cells were isolated through a pinhole in the image plane, and detected by photo-multiplier tube. In all three-cube FRET experiments, CFP levels were below a threshold where spurious, concentration-dependent FRET became significant (Stratton et al., 2004). Similarly, for donor-dequenching experiments, YFP levels were below an analogous threshold. […]

Gβ1 = target: T4, Gβ1 (Bos taurus, UniProt P62871); assay: Yeast two-hybrid assay, channel fragments versus Gβ1; format: binding; details: Gβ1 in pGADT7, channel fragment in pGBKT7
T4 construct: expressed in transfected cells; host or cells: AH109 yeast
T4 sequence (P62871 whole entry, the tested form may be a part): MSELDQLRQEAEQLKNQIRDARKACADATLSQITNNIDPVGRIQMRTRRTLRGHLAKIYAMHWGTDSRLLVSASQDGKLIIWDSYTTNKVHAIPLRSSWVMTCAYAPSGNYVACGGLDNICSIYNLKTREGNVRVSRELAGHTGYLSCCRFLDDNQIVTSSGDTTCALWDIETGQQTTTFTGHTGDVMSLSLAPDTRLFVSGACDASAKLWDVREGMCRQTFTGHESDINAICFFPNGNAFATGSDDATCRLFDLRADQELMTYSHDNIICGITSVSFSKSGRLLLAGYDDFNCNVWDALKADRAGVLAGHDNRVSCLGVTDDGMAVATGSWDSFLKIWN
Excerpt: as §1, §2
as §3, with “Average sum of these backgrounds was subtracted from B to produce the net interaction parameter ΔB (FIG. 2).” left out

Molecule	Interaction with I-IIB (yeast two-hybrid, ΔB) (I-II loop of α1B (I-IIB))	Effect on G/Q slope (Gmax-Qmax relation), with Gβγ [1]	Kd,EFF / affinity for I-IIB (FRET), in words (I-IIB-YFP)	FRmax (I-IIB-YFP)	other results
NTB (45-95): NTB subdomain, residues 45-95 (SEQ ID NO.: 2) (KQSIAQRARTMALYNPIPVKQNCFTVNRSLFVFSEDNVVRKYAKRITEWP; listed as Homo sapiens)	Robust ΔB values	depressed Gmax-Qmax relations to the same extent as did full NTB	–	–	–
NTB (1-44)—CFP: NTB (1-44) fused to CFP (MVRFGDELGGRYGGPGGGERARGGGAGGAGGPGPGGLQPGQRVL; also: fused to CFP)	–	–	no detectable association	–	–
NTB (56-95)—CFP: NTB (56-95) fused to CFP (MALYNPIPVKQNCFTVNRSLFVFSEDNVVRKYAKRITEWP; also: fused to CFP)	–	–	affinity equivalent to that of full NTB	2.44	–
B1	–	–	comparable to that for an apoCaM/IQ segment interaction	3.66	Effect on G/Q slope and currents, without Gβγ ([1]; peptide coexpressed with channels, absent Gβγ): no differences from control
B2	–	–	–	–	Interaction with Gβ1 (yeast two-hybrid) (Gβ1): interacted with Gβ1
B3	partially attenuated association	inter-mediate inhibition	–	–	–
